The record followed here is patent US20220040319A1 (Regeneron, published 2022).

As a reminder, the Kd is the free concentration of one partner at which half of the binding sites on the other are occupied at equilibrium, for simple one-to-one binding. Read a low Kd as a tighter complex. Usually koff stands for the first-order rate constant of dissociation. Low readings indicate a long-lived complex, high ones a short-lived complex. Broadly, the kon is the rate constant with which the complex forms.

First the molecules themselves.
B1: H4H13309P2 (antibody, human IgG4, V domains shown)
VH: QVQLVQSGTEVKEPGASVKVSCKASGYSFTTYGISWLRQAPGQGLEWMGWISTYNGDTISAQMLQDRVTLTADTSTRTAYMELRSLRSDDTAVYYCARGHEYDSLVYSYWGQGTLVTVSS
VL: not shown
notes: human IgG4 Fc (H4H), bivalent monospecific
B2: H4H13311P2 (antibody, human IgG4, V domains shown)
VH: QVQLVESGGGVVQPGRSLRLSCAASGFTFSSYAMHWVRQAPGRGLEWVAVIWHDGDVEYYVDSVKDRFTISRDNSKSTLYLQMNSLRAEDTALYYCAREAWDLLRPFDYWGQGTLVTVSS
VL: not shown
notes: as for B1
B3: H4H13290P2 (antibody, human IgG4, V domains shown)
VH: QVQLQESGPGLVKPSETLSLTCTVSGDSISSYYWTWIRQPPGKGLEWIGYIFYRGGTTYNPSLKSRVTISVDTSKNQFSLKLRSVTAADTAVYYCARGDDLLVVTSVYWYIDLWGRGTLVTVSS
VL: not shown
notes: as for B1
B4: H4H13291P2 (antibody, human IgG4, V domains shown)
VH: QVQLVESGGGVVQPGGSLRLSCAASGFTFSGYGMHWVRQAPGKGLEWMAVIWYDGSNDYYPDSVKGRFTISRDNSKNTLYLQMNSLRVEDTAVYYCARDAWDLLRSFDYWGQGTLVTVSS
VL: not shown
notes: as for B1
B5: H4H13319P2 (antibody, human IgG4, V domains shown)
VH: QVQLVESGGGVVQPGRSLRLSCAASGFTFSSFAMHWVRQAPGKGLEWVAVIWYDGSNDYYAASVKGRFTISRDNSKNTLYLEMNRLRAEDTAVYHCARDNWNYWGGMDVWGQGTTVTVSS
VL: not shown
notes: as for B1
B6: H4H13313P2 (antibody, human IgG4, V domains shown)
VH: QVQLVESGGGVVQPGRSLRLSCSASGFSFSHFGMHWVRQVPGGGLEWVTSIWFDGSNRYYADSLKGRFTISRDNSKNTLYLEMNSLRAEDTAVYYCVREGILGTTNPYDVFDVWGQGTMVTVSS
VL: not shown
notes: as for B1
B7: H4H13316P2 (antibody, human IgG4, V domains shown)
VH: EVQLVESGGGLVQPGGSLRLSCAASGFTFRSYVMSWFRQAPGKGLEWVSGMSGSGGSTSYADSVKGRFTISRDNSKNTLYLLMNSLRTEDTAVYYCAKENGANWNYGYYGMDVWGQGTTVTVSS
VL: not shown
notes: as for B1
B8: H4H13318P2 (antibody, human IgG4, V domains shown)
VH: QVQLVESGGGVVQPGRSLRLSCVASGFSFSNFGMHWVRQAPGKGLEWVAIIWYDGSNKYYSDSVKGRFTISRDNSKNTLYLQMNSLRVDDTAVYYCARFDRWKFDAFDIWGQGTMVTVSS
VL: not shown
notes: as for B1
B9: H4H16445D (bispecific antibody, human IgG4, V domains shown)
VH 1: B4 VH
VH 2: EVQLVESGGGLVQPGGSLRLSCAASGFIVTTNYMTWLRQAPGKGLEWVSLIYSSGHTYYADSVKGRFTISRHNSKNTLYLQMDSLRAEDTAVYYCASAFAADVFDIWGQGTMVTVSS
VL: not shown
B10: H4H16448D (bispecific antibody, human IgG4, V domains shown)
VH 1: B8 VH
VH 2: B9 VH 2
VL: not shown
B11: H4H16449D (bispecific antibody, human IgG4, V domains shown)
VH 1: B5 VH
VH 2: B9 VH 2
VL: not shown
B12: H4H16447D (bispecific antibody, human IgG4, V domains shown)
VH 1: B2 VH
VH 2: B9 VH 2
VL: not shown
B13: H4H16446D (bispecific antibody, human IgG4, V domains shown)
VH 1: QVQLVESGGGVVQPGRSLRLSCAVSGFTFSSYGMHWVRQAPGKGLEWVANIWYDGTNDYYPYSVKGRFTISRDNSQNTLYLQMNSLRAEDTAVYYCAREDFINYRSFDYWGQGTLVTVSS
VH 2: B9 VH 2
VL: not shown

T1 sequence (P08581 other isoform, or with tags, fused parts or gaps limits assumed, chain 1 of 2): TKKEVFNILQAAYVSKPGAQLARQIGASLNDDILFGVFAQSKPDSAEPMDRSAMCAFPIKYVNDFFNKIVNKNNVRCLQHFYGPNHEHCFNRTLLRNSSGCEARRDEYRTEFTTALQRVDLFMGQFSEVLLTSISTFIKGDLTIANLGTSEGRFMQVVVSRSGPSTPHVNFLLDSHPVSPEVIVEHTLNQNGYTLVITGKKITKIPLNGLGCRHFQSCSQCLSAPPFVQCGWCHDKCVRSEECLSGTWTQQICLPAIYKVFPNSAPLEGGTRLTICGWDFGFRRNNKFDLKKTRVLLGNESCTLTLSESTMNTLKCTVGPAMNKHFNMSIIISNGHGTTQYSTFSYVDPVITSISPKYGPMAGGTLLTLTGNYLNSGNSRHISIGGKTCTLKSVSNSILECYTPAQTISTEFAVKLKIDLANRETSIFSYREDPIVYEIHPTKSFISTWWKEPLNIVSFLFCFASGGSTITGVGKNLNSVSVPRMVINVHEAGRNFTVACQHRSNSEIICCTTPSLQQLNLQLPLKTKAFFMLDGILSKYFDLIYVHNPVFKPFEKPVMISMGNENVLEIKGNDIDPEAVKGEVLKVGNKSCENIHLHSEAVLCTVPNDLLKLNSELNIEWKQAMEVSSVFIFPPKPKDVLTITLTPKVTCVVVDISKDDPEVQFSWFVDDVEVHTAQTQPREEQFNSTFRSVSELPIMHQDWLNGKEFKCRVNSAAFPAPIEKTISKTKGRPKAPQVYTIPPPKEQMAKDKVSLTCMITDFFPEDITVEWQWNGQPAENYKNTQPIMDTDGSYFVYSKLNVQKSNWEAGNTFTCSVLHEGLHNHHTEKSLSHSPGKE
T1 sequence (P08581 27-307 limits assumed, chain 2 of 2): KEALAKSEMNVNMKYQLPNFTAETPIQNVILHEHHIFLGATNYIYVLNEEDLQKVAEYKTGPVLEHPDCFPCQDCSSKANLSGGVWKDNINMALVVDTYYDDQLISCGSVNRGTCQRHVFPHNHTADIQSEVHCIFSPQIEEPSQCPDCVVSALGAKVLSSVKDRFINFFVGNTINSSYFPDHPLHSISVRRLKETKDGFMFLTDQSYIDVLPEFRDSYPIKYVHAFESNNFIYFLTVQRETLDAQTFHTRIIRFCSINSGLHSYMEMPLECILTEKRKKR
T2 sequence (P08581 other isoform, or with tags, fused parts or gaps limits assumed, chain 1 of 2): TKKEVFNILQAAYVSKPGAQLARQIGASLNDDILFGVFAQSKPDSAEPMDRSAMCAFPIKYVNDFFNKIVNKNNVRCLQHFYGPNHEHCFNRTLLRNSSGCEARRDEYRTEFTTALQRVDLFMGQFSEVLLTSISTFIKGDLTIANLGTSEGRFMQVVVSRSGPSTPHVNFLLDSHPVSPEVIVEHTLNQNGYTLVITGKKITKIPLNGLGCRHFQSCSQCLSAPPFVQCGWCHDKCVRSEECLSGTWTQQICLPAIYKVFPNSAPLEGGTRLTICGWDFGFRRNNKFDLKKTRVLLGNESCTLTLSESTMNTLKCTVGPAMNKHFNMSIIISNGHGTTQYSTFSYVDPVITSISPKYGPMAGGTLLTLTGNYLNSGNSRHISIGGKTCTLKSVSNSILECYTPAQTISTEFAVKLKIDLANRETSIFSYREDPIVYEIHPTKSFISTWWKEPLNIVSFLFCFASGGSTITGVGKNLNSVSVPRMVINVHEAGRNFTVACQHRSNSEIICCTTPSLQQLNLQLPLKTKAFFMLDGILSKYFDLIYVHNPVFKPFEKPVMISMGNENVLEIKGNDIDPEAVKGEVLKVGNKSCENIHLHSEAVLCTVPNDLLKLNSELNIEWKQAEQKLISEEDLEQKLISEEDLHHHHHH
T2 sequence (P08581 27-307 limits assumed, chain 2 of 2): as the sequence (P08581 27-307 limits assumed, chain 2 of 2) above

The first experiment addresses T1, hMET.mFc (dimeric human MET) (human, UniProt P08581 27-307).
T1 construct: soluble dimeric MET protein
Kind of experiment: SPR 37C, antibody captured. How it is done:
(§1) The anti-Met antibodies tested in this example were bivalent monospecific binders of MET.
(§2) Kinetic association (kₐ) and dissociation (kd) rate constants were determined by fitting the real-time sensorgrams to a 1:1 binding model using Scrubber 2.0c curve fitting software. Binding dissociation equilibrium constant (KD) and dissociative half-life (t1/2) were calculated from the kinetic rate constants as: […]
For the molecule B1, the affinity, expressed as Kd, was 0.657 nM; the T½ was 43.3 min; the off-rate (koff) stood at 0.000267 s⁻¹; the on-rate (kon) turned out to be 406000 M⁻¹ s⁻¹.
With B2, the affinity, expressed as Kd, was 1.55 nM; the T½ came to 24.7 min; the off-rate constant (koff) stood at 0.000468 s⁻¹; the on-rate (kon) came to 302000 M⁻¹ s⁻¹.
The molecule B3 yielded a dissociation constant (Kd) of 0.513 nM, a T½ of 36.6 min, a koff of 0.000315 s⁻¹ and a kon of 615000 M⁻¹ s⁻¹.
For B4, the Kd was 1.02 nM, the T½ turned out to be 34 min, the off-rate (koff) was determined as 0.000339 s⁻¹ and the kon worked out at 333000 M⁻¹ s⁻¹.
In turn, B5 had an equilibrium dissociation constant (Kd) of 1.42 nM, a T½ of 21.3 min, a dissociation rate constant (koff) of 0.000542 s⁻¹ and a kon of 382000 M⁻¹ s⁻¹.
B6 registered a Kd of 1.19 nM, a T½ of 12.9 min, an off-rate (koff) of 0.000893 s⁻¹ and a kon of 750000 M⁻¹ s⁻¹.
In the case of B7, the dissociation constant (Kd) was 0.367 nM, the T½ turned out to be 107 min, the koff worked out at 0.000108 s⁻¹ and the kon amounted to 293000 M⁻¹ s⁻¹.
Take B8: the affinity, expressed as Kd, was 0.467 nM; the T½ was 70.2 min; the koff is 0.000165 s⁻¹; the kon is 352000 M⁻¹ s⁻¹.

The next experiment concerns the target T2, hMet.mmh (human MET extracellular domain with C-terminal myc-myc-hexahistidine tag) (human, UniProt P08581 309-914; P08581 27-307).
T2 construct: soluble monomeric MET; also called monomeric human MET
Briefly: SPR 37C, antibody captured. The method, then: as §1, §2
In turn, B1 gave a Kd of 6.38 nM, a T½ of 19.7 min, an off-rate constant (koff) of 0.000587 s⁻¹ and an on-rate constant (kon) of 92000 M⁻¹ s⁻¹.
For the molecule B2, the dissociation constant (Kd) is 116 nM, the T½ stood at 2.2 min, the dissociation rate constant (koff) turned out to be 0.00519 s⁻¹ and the on-rate (kon) turned out to be 44800 M⁻¹ s⁻¹.
As for B3, the dissociation constant (Kd) amounted to 3.17 nM, the T½ was 14.4 min, the off-rate (koff) was 0.000803 s⁻¹ and the association rate constant (kon) worked out at 253000 M⁻¹ s⁻¹.
On to B4, for which binding was put at a Kd of 93.4 nM, the T½ was found to be 4.8 min, the koff turned out to be 0.00238 s⁻¹ and the association rate constant (kon) was determined as 25500 M⁻¹ s⁻¹.
The molecule B5 returned a Kd of 76.5 nM, a T½ of 4.9 min, a koff of 0.00238 s⁻¹ and an on-rate (kon) of 31100 M⁻¹ s⁻¹.
B6 returned a dissociation constant (Kd) of 64.9 nM, a T½ of 2 min, a koff of 0.0057 s⁻¹ and a kon of 87800 M⁻¹ s⁻¹.
Regarding B7, the Kd came to 19.3 nM, the T½ turned out to be 7.6 min, the koff is 0.00151 s⁻¹ and the on-rate constant (kon) was found to be 78200 M⁻¹ s⁻¹.
For B8, the Kd was determined as 88.3 nM, the T½ was found to be 4 min, the koff stood at 0.00292 s⁻¹ and the kon came out at 33000 M⁻¹ s⁻¹.

The target in the next experiment is human MET on cells (human, UniProt P08581 25-1390). Kind of experiment: cell-based or functional assay.
human MET on cells, sequence (P08581 25-1390 limits assumed, form in doubt): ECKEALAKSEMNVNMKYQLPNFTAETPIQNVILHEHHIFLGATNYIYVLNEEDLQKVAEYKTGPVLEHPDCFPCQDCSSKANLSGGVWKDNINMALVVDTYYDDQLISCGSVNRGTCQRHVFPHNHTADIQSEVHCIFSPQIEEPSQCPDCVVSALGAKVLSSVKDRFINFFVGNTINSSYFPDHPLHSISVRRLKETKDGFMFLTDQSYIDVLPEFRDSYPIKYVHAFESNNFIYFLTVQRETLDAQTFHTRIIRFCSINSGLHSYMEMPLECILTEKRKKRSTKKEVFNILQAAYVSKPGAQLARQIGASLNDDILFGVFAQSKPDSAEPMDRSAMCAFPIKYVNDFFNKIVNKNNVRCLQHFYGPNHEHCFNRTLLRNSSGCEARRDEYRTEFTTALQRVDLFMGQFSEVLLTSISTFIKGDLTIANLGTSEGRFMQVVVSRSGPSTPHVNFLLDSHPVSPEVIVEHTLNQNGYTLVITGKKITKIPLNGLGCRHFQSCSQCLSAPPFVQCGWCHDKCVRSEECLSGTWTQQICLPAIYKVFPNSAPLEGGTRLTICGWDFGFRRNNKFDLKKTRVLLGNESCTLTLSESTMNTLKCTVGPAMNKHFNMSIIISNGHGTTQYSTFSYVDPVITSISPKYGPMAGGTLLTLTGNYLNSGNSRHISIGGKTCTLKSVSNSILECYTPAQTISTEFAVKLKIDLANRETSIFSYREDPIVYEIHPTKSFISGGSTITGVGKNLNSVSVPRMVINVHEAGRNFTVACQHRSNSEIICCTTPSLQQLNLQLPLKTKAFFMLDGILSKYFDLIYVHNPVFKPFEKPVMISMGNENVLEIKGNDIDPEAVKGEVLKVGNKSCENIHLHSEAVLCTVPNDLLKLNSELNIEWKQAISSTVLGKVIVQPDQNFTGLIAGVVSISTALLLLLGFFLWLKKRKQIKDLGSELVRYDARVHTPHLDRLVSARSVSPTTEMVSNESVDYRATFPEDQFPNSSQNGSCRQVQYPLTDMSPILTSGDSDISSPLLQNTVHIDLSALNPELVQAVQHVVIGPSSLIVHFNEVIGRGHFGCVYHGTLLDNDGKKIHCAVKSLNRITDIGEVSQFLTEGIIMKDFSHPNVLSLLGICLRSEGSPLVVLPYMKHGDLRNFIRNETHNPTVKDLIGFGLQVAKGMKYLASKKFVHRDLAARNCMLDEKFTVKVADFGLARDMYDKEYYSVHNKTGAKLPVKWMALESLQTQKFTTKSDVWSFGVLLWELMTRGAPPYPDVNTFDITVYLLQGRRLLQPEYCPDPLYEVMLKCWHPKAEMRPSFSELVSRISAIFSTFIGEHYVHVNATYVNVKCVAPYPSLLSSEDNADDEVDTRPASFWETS
In the case of B9, the “% Inhibition, HEK293/SRE-Luc Blocking Activity (HGF, 1 h mAb pre-bind)” value is 81%; the “EC50, Ligand (HGF)-Independent HEK293/SRE-Luc Activation” value came to 1 nM; the “Fold Response, Ligand (HGF)-Independent HEK293/SRE-Luc Activation” value came to 4.3 fold; the “IC50, HEK293/SRE-Luc Blocking Activity (HGF, 1 h mAb pre-bind)” value (“IC50, HEK293/SRE-Luc Blocking Activity” below) was 0.52 nM.
The like results for B10 were, in that order, 87%, 0.91 nM, 4.3 fold and 0.62 nM.
B11: the “% Inhibition, HEK293/SRE-Luc Blocking Activity (HGF, 1 h mAb pre-bind)” value was found to be 85%; the “EC50, Ligand (HGF)-Independent HEK293/SRE-Luc Activation” value was found to be 0.42 nM; the “Fold Response, Ligand (HGF)-Independent HEK293/SRE-Luc Activation” value is 4.2 fold; the “IC50, HEK293/SRE-Luc Blocking Activity” value was determined as 0.32 nM.
Regarding B12, the “% Inhibition, HEK293/SRE-Luc Blocking Activity (HGF, 1 h mAb pre-bind)” value worked out at 76% and the “EC50, Ligand (HGF)-Independent HEK293/SRE-Luc Activation” value is 1.4 nM.
For B13, the “% Inhibition, HEK293/SRE-Luc Blocking Activity (HGF, 1 h mAb pre-bind)” value worked out at 83%; the “EC50, Ligand (HGF)-Independent HEK293/SRE-Luc Activation” value turned out to be 1.4 nM; the “Fold Response, Ligand (HGF)-Independent HEK293/SRE-Luc Activation” value stood at 4 fold; the “IC50, HEK293/SRE-Luc Blocking Activity” value worked out at 1 nM.
